In PMC5452035, “Structural insight into recognition of phosphorylated threonine‐4 of RNA polymerase II C‐terminal domain by Rtt103p” (EMBO Reports, 2017):
pKd: −log10 of the molar value.

Experiments:
Test in all cases: fluorescence polarisation; fluorescence anisotropy; Rtt103p CID titrated into 10 nM N-terminally FAM-labelled CTD peptide; 10°C; 35 mM KH2PO4, 100 mM KCl, pH 6.8; 1:1 model with non-specific binding (DynaFit)
[1] = target: FAM-PSY(pS)…
[2] = target: FAM-…
[3] = target: FAM-PSY(pS)P(pT)…
[4] = target: FAM-PSYSP(pT)…
[5] = target: FAM-PSYSP(pT)SPSYSP(pT)SPS

Substance: Rtt103p CTD-interacting domain (CID) (3-131-6xHIS) (from UniProt Q05543 3-131) (domain or fragment)
- pKd [1]: 5.22
- pKd [2]: 4.19
- pKd [3]: 4.37
- pKd [4]: 4.82
- pKd [5]: 5.22
